What was measured:
gliadin = assay: Digestion of whole gliadin monitored by RP-HPLC; assay type: biochemical, Triticum aestivum; details: pH 4, 37° C., 30 min digestion
Experimental: The ability of E40 to hydrolyze harmful peptides in whole gliadin proteins was assessed by HPLC analysis (FIG. 6). Gliadin was extracted from whole flour of Triticum aestivum (Sagittario cultivar) according to Mamone et al^4. Gliadin (1 mg) was dissolved in 1 ml of 0.1 M ammonium acetate pH 4 and incubated with E40 enzymes (enzyme:substrate, 1:20), at 37° C. for different time points (0, 15, 30, 60, 120, 240 minutes). The enzymatic hydrolysis was stopped by boiling samples for 5 minutes. Samples were lyophilized and stored at −40° C. until further chemical analysis.
SDS-PAGE was performed on a Tetra-cell Mini-PROTEAN system (Bio-Rad, Milan, Italy). Digested gliadin samples were dissolved in Laemli buffer (0.125 M Tris-HCl pH 6.8, 5% SDS, 20% glycerol, 0.02% bromophenol blue) and loaded onto precast 12% acrylamide gel (Bio-Rad). Electrophoresis was carried out under non-reducing conditions, omitting β-mercaptoethanol in the Laemli buffer. Protein bands were visualized with silver blue (Coomassie Brilliant Blue G-250) and digitalized using a LABScan scanner (Amersham Bioscience/GE Healthcare, Uppsala, Sweden). RP-HPLC was carried out on a RP-HPLC using an HP 1100 Agilent Technology modular system (Palo Alto, Calif., USA). […] Eluent A was 0.1% TFA (v/v) in Milli-Q water, eluent B was 0.1% TFA (v/v) in acetonitrile. […] The column effluent was monitored at 220 and 280 nm with an UV-Vis detector. […]

gluten of bread = assay: In vitro oral-gastric digestion of bread, gluten by Elisa-R5 competitive; assay type: biochemical, T. aestivum
Experimental: In order to evaluate the efficiency of E40 enzyme as oral supplement to abolish the gluten intake in patients, in vitro oral-gastric digestion model was applied. Digestion step of bread (T. aestivum) was carried out under simulated physiological condition including oral mastication and presence of digestive gastric enzymes. Digestion time was selected according to the average time of chyme's transit in the gastric compartments. E40 enzyme preparation was added at beginning of the simulated gastric phase. The destruction of the T cell epitopes and toxic peptides was tested using monoclonal antibodies (Elisa-R5 competitive), according to the manufacturer's and to the AOAC guidelines.

trypsin = assay: Resistance of E40 to trypsin (suc-Ala-Ala-Pro-Phe-pNA cleavage); assay type: biochemical; details: pH 6 and 7; protease 1:2 (w/w) versus E40; 110 minutes, 37° C.
Experimental: The resistance of recombinant E40, obtained by the method of the invention, to the proteolytic activity of gastric (pepsin) and duodenal (trypsin) digestive proteases was further evaluated (FIG. 4), using suc-Ala-Ala-Pro-Phe-pNA as substrate. Aqueous solutions of E40 enzyme, alone or in combination with pepsin and/or trypsin (0.2 mg/ml E40, 0.1 mg/ml Pepsin or Trypsin), were diluted in citrate-phosphate buffer containing suc-Ala-Ala-Pro-Phe-pNA at pH 4, 4.5 and 5 for pepsin, and at pH 6 and 7 for trypsin. Final concentrations in reaction mix were: 200 μM substrate, 1-4 nM E40 for incubations at pH 4 to 5, or 4 nM and 7 nM for incubations at pH 6 or 7, respectively (E40 concentration was adjusted according to optimum pH). The digestive protease was maintained in the ratio 1:2 (w/w) versus E40.
Reactions (200 μl volume in 96-wells flat bottom ptiter plates) were protracted for 110 minutes at 37° C. Absorbance was monitored every 10 min for determining the enzymatic activity. Pepsin and trypsin without E40 were processed in the same way and tested in the same condition as reference control. Each analysis was carried out in duplicate.

[1] = Activity of culture supernatant toward sucAAPF-AMC at various pH; assay type: biochemical; details: recombinant E40 culture supernatant
Experimental: FIG. 1. Activity of Actinoallomurus A8 culture supernatant fraction containing the native E40. A: relative activity toward the substrate sucAlaAlaProPhe-AMC (sucAAPF-AMC) at various pH values (the optimum —100% activity— is at pH 5). B: Gliadin digestion after 2 hours of incubation at 37° C., pH 3. Gel stained with Coomassie R250 brilliant blue; Lane 1: gliadin alone, lane 2: gliadin+E40-containing supernatant fraction.
FIG. 3. Recombinant E40 (SEQ ID NO: 2) obtained by S. lividans TK24/p1J86/e40 submerged fermentation, at flask scale (panels A-C) or in a 15 L bioreactor, followed by purification (panels D-E). A: activity toward the substrate sucAAPF-AMC at pH 5 of supernatant samples taken at different fermentation times (♦72, ▴96, ●168, ▪192 fermentation hours) from the producing S. lividans TK24/p1J86/E40 (E40, continuous line) and absence of activity of supernatant samples taken from the pIJ86-empty control strain (ctr, dashed lines). Activity is shown as relative fluorescent units (rfu, Y axis) produced in time (X axis). […] D: profile of an enzyme preparation comprising recombinant E40 purified from the 15 L fermentation; lane 1: final enzyme preparation comprising recombinant E40 stained with Coomassie (the arrow indicates recombinant E40), lane 2: zymography as in C, lane 3: band of gelatin hydrolysis after 2 hours of digestion at 37° C. and pH 5, visualized after Coomassie staining of the gelatin substrate. E: relative activity (%) of recombinant E40 in the purified enzyme preparation at different pH values (from 2 to 8), evaluated with the substrate suc-Ala-Ala-Pro-Phe-pNA.
As well as native E40, recombinant E40 was active in the pH range 3-6, with an optimum at pH 5 (FIG. 3, panel B).

B1: E40: Actinoallomurus endopeptidase with glutenase activity, sequence comprising SEQ ID NO: 1; recombinant histidine-tagged form SEQ ID NO: 2 from S. lividans (protein)
chain: AAPSGLSPANLQSAYKLPSSTAGSGQTVAIVDAYDAPTAEADLNVYRSQFGLGACTTANGCFKKVDQNGGTSYPRKDGGWAQEISLDLDMVSAVCPNCKIVLVEAKTNSFANLGTAENTAASLANVISNSYGGSDASDASYGSYYNHPGKAITVSSGDAGYGVEYPASSHYVTAVGGTSLRTASTSRGWSETAWSGAGSGCSAYNTALSGQSGLTGCSRRAVADVSAVADPATGVAVYDSTAYQGQSGWMVFGGTSVAAPIIGGVYGLAANAASIDNNYPYAHTSSLFDVTSGSNGTCTTTKWCTAGTGWDGPTGLGTPNGTGAFGHHHHHH
modifications: Actinoallomurus
- peaks assigned to gliadins after 30 min (gliadin): markedly reduced
- pH of maximal activity (purified enzyme preparation, pH range 2 to 8): 5
- residual activity at pH 3 (purified enzyme preparation, relative to pH 5): ~40%
- enzyme activity of purified sample (purified sample of Example 4, pH 5, 37° C.): 41000 U/mg protein
- gluten content of bread digest (Elisa-R5) (gluten of bread; E40 added at beginning of simulated gastric phase): 16.2 ppm (ng/mL)
- gluten content of digested bread including E40 (gluten of bread; oral-gastric digest): < 20 ppm
- E40 cleaving activity in presence of trypsin (trypsin): unaffected
- pH range of activity [1]: 3-6
- pH optimum of relative activity ([1]; 168 hours of fermentation, sucAAPF-AMC): 5
